According to PMC6321010, “Interaction of the GTPase Elongation Factor Like-1 with the Shwachman-Diamond Syndrome Protein and Its Missense Mutations” (International Journal of Molecular Sciences, 2018):
Substitutions are numbered along the chain they refer to.

Key:
Assay in all cases: fluorescence polarisation; fluorescence anisotropy; 2 µL additions of 40-90 µM human EFL1 titrated into 300 µL of 0.1 µM Lumio Green-labelled human SBDS-FlAsH construct; 25 °C; 50 mM Tris-HCl pH 8, 300 mM NaCl, 5 mM β-mercaptoethanol; fitted to a single-site or a two different binding sites model
Settings in all cases: both partners purified
[1] = target: T1, human SBDS domains 1-2 (residues 1-174) with C-terminal FlAsH tag, labelled with Lumio Green (human, UniProt Q9Y3A5 1-174, Lumio Green dye (4',5'-bis(1,3,2-dithioarsolan-2-yl) fluorescein) on the C-terminal FlAsH tag)
T1 construct: human SBDS, domains 1-2, residues 1-174; also called construct consisting of domains 1-2 of SBDS; source: E. coli C41 (pRSET plasmid), purified by conventional chromatographic techniques; not shown: FlAsH tag (Cys-Cys-Pro-Gly-Cys-Cys), C-terminal, kept
T1 sequence (looked up): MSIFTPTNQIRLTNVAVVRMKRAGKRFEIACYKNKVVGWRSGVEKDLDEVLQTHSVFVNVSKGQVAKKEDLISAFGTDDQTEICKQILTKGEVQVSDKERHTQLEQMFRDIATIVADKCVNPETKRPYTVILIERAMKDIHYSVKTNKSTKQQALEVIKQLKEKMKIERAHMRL

[2] = target: T2, human SBDS K67E with C-terminal FlAsH tag, labelled with Lumio Green (human, UniProt Q9Y3A5 1-250, K67E, Lumio Green dye (4',5'-bis(1,3,2-dithioarsolan-2-yl) fluorescein) on the C-terminal FlAsH tag)
T2 construct: human SBDS, SDS disease surface missense variant K67E (domain 1), in the three-domain protein; Missense variant found in patients; source: E. coli C41 (pRSET plasmid), purified by conventional chromatographic techniques; not shown: FlAsH tag (Cys-Cys-Pro-Gly-Cys-Cys), C-terminal, kept
T2 sequence (looked up): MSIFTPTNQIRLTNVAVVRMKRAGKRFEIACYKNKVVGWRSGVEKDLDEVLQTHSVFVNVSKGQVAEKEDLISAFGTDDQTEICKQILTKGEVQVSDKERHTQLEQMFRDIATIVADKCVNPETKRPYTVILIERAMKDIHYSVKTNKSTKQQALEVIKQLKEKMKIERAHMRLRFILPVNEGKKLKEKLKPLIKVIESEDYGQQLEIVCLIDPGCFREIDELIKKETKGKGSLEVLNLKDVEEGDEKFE

[3] = target: T3, human SBDS R126T with C-terminal FlAsH tag, labelled with Lumio Green (human, UniProt Q9Y3A5 1-250, R126T, Lumio Green dye (4',5'-bis(1,3,2-dithioarsolan-2-yl) fluorescein) on the C-terminal FlAsH tag)
T3 construct: human SBDS, SDS disease surface missense variant R126T (domain 2), in the three-domain protein; Missense variant found in patients; source: E. coli C41 (pRSET plasmid), purified by conventional chromatographic techniques; not shown: FlAsH tag (Cys-Cys-Pro-Gly-Cys-Cys), C-terminal, kept
T3 sequence (looked up): T2 sequence (looked up) with E67K, R126T

[4] = target: T4, human SBDS I167T with C-terminal FlAsH tag, labelled with Lumio Green (human, UniProt Q9Y3A5 1-250, I167T, Lumio Green dye (4',5'-bis(1,3,2-dithioarsolan-2-yl) fluorescein) on the C-terminal FlAsH tag)
T4 construct: human SBDS, SDS disease surface missense variant I167T (domain 2), in the three-domain protein; Missense variant found in patients; source: E. coli C41 (pRSET plasmid), purified by conventional chromatographic techniques; not shown: FlAsH tag (Cys-Cys-Pro-Gly-Cys-Cys), C-terminal, kept
T4 sequence (looked up): T2 sequence (looked up) with E67K, I167T

B1: human Elongation Factor Like-1 (EFL1) (enzyme)
chain: MVLNSLDKMIQLQKNTANIRNICVLAHVDHGKTTLADCLISSNGIISSRLAGKLRYMDSREDEQIRGITMKSSAISLHYATGNEEYLINLIDSPGHVDFSSEVSTAVRICDGCIIVVDAVEGVCPQTQAVLRQAWLENIRPVLVINKIDRLIVELKFTPQEAYSHLKNILEQINALTGTLFTSKVLEERAERETESQVNPNSEQGEQVYDWSTGLEDTDDSHLYFSPEQGNVVFTSAIDGWGFGIEHFARIYSQKIGIKKEVLMKTLWGDYYINMKAKKIMKGDQAKGKKPLFVQLILENIWSLYDAVLKKDKDKIDKIVTSLGLKIGAREARHSDPKVQINAICSQWLPISHAVLAMVCQKLPSPLDITAERVERLMCTGSQTFDSFPPETQALKAAFMKCGSEDTAPVIIFVSKMFAVDAKALPQNKPRPLTQEEIAQRRERARQRHAEKLAAAQGQAPLEPTQDGSAIETCPKGEEPRGDEQQVESMTPKPVLQEENNQESFIAFARVFSGVARRGKKIFVLGPKYSPLEFLRRVPLGFSAPPDGLPQVPHMAYCALENLYLLMGRELEYLEEVPPGNVLGIGGLQDFVLKSATLCSLPSCPPFIPLNFEATPIVRVAVEPKHPSEMPQLVKGMKLLNQADPCVQILIQETGEHVLVTAGEVHLQRCLDDLKERFAKIHISVSEPIIPFRETITKPPKVDMVNEEIGKQQKVAVIHQMKEDQSKIPEGIQVDSDGLITITTPNKLATLSVRAMPLPEEVTQILEENSDLIRSMEQLTSSLNEGENTHMIHQKTQEKIWEFKGKLEQHLTGRRWRNIVDQIWSFGPRKCGPNILVNKSEDFQNSVWTGPADKASKEASRYRDLGNSIVSGFQLATLSGPMCEEPLMGVCFVLEKWDLSKFEEQGASDLAKEGQEENETCSGGNENQELQDGCSEAFEKRTSQKGESPLTDCYGPFSGQLIATMKEACRYALQVKPQRLMAAMYTCDIMATGDVLGRVYAVLSKREGRVLQEEMKEGTDMFIIKAVLPVAESFGFADEIRKRTSGLASPQLVFSHWEIIPSDPFWVPTTEEEYLHFGEKADSENQARKYMNAVRKRKGLYVEEKIVEHAEKQRTLSKNK
notes: human EFL1, GTPase, said to comprise 1120 residues; the expressed protein is fused to a TEV recognition site and a hexahistidine tag at the C-terminus; also called human EFL1; GTPase Elongation Factor Like-1; source: S. cerevisiae BCY123 (pRS426 backbone, GAL1/10 promoter), purified
Kd1 (first binding site, two different binding sites model) [1]: 11.3 ± 1.8 µM | Kd2 (second binding site, two different binding sites model) [1]: 3.9 ± 0.2 µM | Kd1 (first binding site, two different binding sites model) [2]: 7.2 ± 2 µM | Kd2 (second binding site, two different binding sites model) [2]: 3 ± 1 µM | Kd1 (first binding site, two different binding sites model) [3]: 9.3 ± 1.7 µM | Kd2 (second binding site, two different binding sites model) [3]: 2.5 ± 0.2 µM | Kd1 (first binding site, two different binding sites model) [4]: 10 ± 3 µM | Kd2 (second binding site, two different binding sites model) [4]: 1.4 ± 0.2 µM
